Assay results taken from the RNAGym collection of RNA variant scans (doi:10.1073/pnas.2313332121).

B1: TPR t1 (parent)
chain: GACCAAUCUGCCCUCAGAGCUCGAGAACAUCUUCGGAUGCAGAGGAGGCAGGCUUCGGUGGCGCGAUAGCGCCAACGUCCUCAACCUCCAAUGCAUCCCACCACAUGAUGAUGCCUGAAGAGCCUUGGUUUUUUG

Variants of: B1
Test: polymerase ribozyme fitness, log enrichment relative to wild type (log ratio); higher = more active; in vitro selection for triplet polymerase activity
In short: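 PCR was used to build mutant libraries for each subunit of a heterodimeric triplet polymerase ribozyme, which were then transcribed. A single in vitro selection round, in triplicate, used a frozen incubation at −7 °C and recovered extended constructs by gel excision, streptavidin beads and RT-PCR. Fitness is the logarithm of genotype enrichment relative to wild-type enrichment, averaged over replicates with inverse-variance weights. The logarithm is base 2, and after Illumina sequencing only genotypes with ≥10 input reads and ≥1 read per output were kept.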

| Variant | polymerase ribozyme fitness (log ratio) |
| --- | --- |
| G127U U129A U130C | -1.27 |
| C123A U125C | 0.193 |
| A121U C123A C124G | 2.17 |
| G120U G135U | -1.2 |
| U129C U133G | 0.0769 |
| G120U U130G | -0.763 |
| G120U U130A | -0.3 |
| G117C C123U | -4.89 |
| C124U G135U | -0.0615 |
| A121G U131G | 1.36 |
| A121G U131A | 2.42 |
| C123U U126A G135U | 0.771 |
| G117A G135C | -1.41 |
| G117A G135U | -1.92 |
| U125A U126G | -1.8 |
| G117U G120A U132A | -1.33 |
| C123U U125G | 1.08 |
| G117C U130A | -5.1 |
| G117C U130C | -2.84 |
| U134A | 0.465 |
| U134C | -0.304 |

| Variant | polymerase ribozyme fitness (log ratio) |
| --- | --- |
| U134G | 0.625 |
| G120A G122C | -0.571 |
| U129C U130A | -0.859 |
| C124G U132A | 2.04 |
| G122A U129C | -0.808 |
| C115U G127A | -3.15 |
| G128C U133A | -2.85 |
| U116C G117C | -2.2 |
| U126G U130G | -3.64 |
| A121C G128U | 0.545 |
| G120C C123A | 0.937 |
| G120C C123G | 0.469 |
| A118G G135C | -0.273 |
| G117A U131G | -1.55 |
| G128A U133A | -3.85 |
| G122U C124A | 1.69 |
| G122U C124U | 0.953 |
| G122U C124G | -0.864 |
| G120A C123G | 1.22 |
| A119U | -0.349 |
| A119C | -4.38 |

| Variant | polymerase ribozyme fitness (log ratio) |
| --- | --- |
| A119G | 1.12 |
| U116A U133C | -3.8 |
| G120A G127A U129C | -1.04 |
| G120U U129C | -0.774 |
| G117A U133G | -0.981 |
| A119U G128C | -2.46 |
| C123U G135C | 1.48 |
| C123U G135U | -0.4 |
| C124U U129A | -0.35 |
| A121U U129G | 1.22 |
| C123G G128C | -0.446 |
| G120A U126C | -0.356 |
| G122A C124G | 1.86 |
| G117C U129G | -6.14 |
| A121U C124A | 2.1 |
| U116G A121G | -0.679 |
| U116G A121C | -0.876 |
| U116G C123U G128A | -5.61 |
| G117C C124U | -3.55 |
| U132A | -0.0436 |
| U132G | -2.28 |

| Variant | polymerase ribozyme fitness (log ratio) |
| --- | --- |
| U132C | -0.134 |
| G117U U126G | -5.92 |
| G120U U133A | 0.165 |
| U129A U132C | -0.64 |
| C124A U133G | -0.27 |
| C124G | 1.59 |
| C124U | 1.54 |
| C124A | 1.78 |
| U116C G135A | -0.82 |
| C123A U125C U129G | -1.5 |
| G120A G127A | -0.68 |
| G120A G127U | 0.172 |
| A118U U130G | -0.458 |
| U116G A119G | 1.79 |
| G122A U130G | -1.01 |
| G122A U130C | -0.597 |
| G135A | -0.639 |
| G135U | -0.939 |
| G135C | 0.446 |
| C115U G122U | -1.31 |
